{
  "source": "the Human Domainome abundance scans (Beltran et al. 2025)",
  "note": "± gives the uncertainty stated by the source.",
  "data": [
    {"test": "abundance fitness (aPCA) (normalised: wild type 0, dead -1); higher = more abundant; growth selection in yeast, the domain comes from the species named", "settings": "Homo sapiens", "values": [
      {"substance": "Lipoamide acyltransferase component of branched-chain alpha-keto acid dehydrogenase complex, mitochondrial D197V, P11182", "abundance fitness": "-0.728 ± 0.061"},
      {"substance": "Lipoamide acyltransferase component of branched-chain alpha-keto acid dehydrogenase complex, mitochondrial D197W, P11182", "abundance fitness": "-0.387 ± 0.064"},
      {"substance": "Lipoamide acyltransferase component of branched-chain alpha-keto acid dehydrogenase complex, mitochondrial D204A, P11182", "abundance fitness": "-1.24 ± 0.064"},
      {"substance": "Lipoamide acyltransferase component of branched-chain alpha-keto acid dehydrogenase complex, mitochondrial D204C, P11182", "abundance fitness": "-1.27 ± 0.098"},
      {"substance": "Lipoamide acyltransferase component of branched-chain alpha-keto acid dehydrogenase complex, mitochondrial D204E, P11182", "abundance fitness": "-0.771 ± 0.1"},
      {"substance": "Lipoamide acyltransferase component of branched-chain alpha-keto acid dehydrogenase complex, mitochondrial D204G, P11182", "abundance fitness": "-0.806 ± 0.042"},
      {"substance": "Lipoamide acyltransferase component of branched-chain alpha-keto acid dehydrogenase complex, mitochondrial D204H, P11182", "abundance fitness": "-0.946 ± 0.16"},
      {"substance": "Lipoamide acyltransferase component of branched-chain alpha-keto acid dehydrogenase complex, mitochondrial D204L, P11182", "abundance fitness": "-1.26 ± 0.1"},
      {"substance": "Lipoamide acyltransferase component of branched-chain alpha-keto acid dehydrogenase complex, mitochondrial D204M, P11182", "abundance fitness": "-1.35 ± 0.11"},
      {"substance": "Lipoamide acyltransferase component of branched-chain alpha-keto acid dehydrogenase complex, mitochondrial D204N, P11182", "abundance fitness": "-0.136 ± 0.4"},
      {"substance": "Lipoamide acyltransferase component of branched-chain alpha-keto acid dehydrogenase complex, mitochondrial D204P, P11182", "abundance fitness": "-0.455 ± 0.06"},
      {"substance": "Lipoamide acyltransferase component of branched-chain alpha-keto acid dehydrogenase complex, mitochondrial D204Q, P11182", "abundance fitness": "-0.932 ± 0.062"},
      {"substance": "Lipoamide acyltransferase component of branched-chain alpha-keto acid dehydrogenase complex, mitochondrial D204R, P11182", "abundance fitness": "-1.07 ± 0.047"},
      {"substance": "Lipoamide acyltransferase component of branched-chain alpha-keto acid dehydrogenase complex, mitochondrial D204S, P11182", "abundance fitness": "-0.83 ± 0.068"},
      {"substance": "Lipoamide acyltransferase component of branched-chain alpha-keto acid dehydrogenase complex, mitochondrial D204T, P11182", "abundance fitness": "-0.973 ± 0.064"},
      {"substance": "Lipoamide acyltransferase component of branched-chain alpha-keto acid dehydrogenase complex, mitochondrial D204V, P11182", "abundance fitness": "-1.1 ± 0.072"},
      {"substance": "Lipoamide acyltransferase component of branched-chain alpha-keto acid dehydrogenase complex, mitochondrial E190A, P11182", "abundance fitness": "-0.093 ± 0.047"},
      {"substance": "Lipoamide acyltransferase component of branched-chain alpha-keto acid dehydrogenase complex, mitochondrial E190C, P11182", "abundance fitness": "-0.315 ± 0.12"},
      {"substance": "Lipoamide acyltransferase component of branched-chain alpha-keto acid dehydrogenase complex, mitochondrial E190D, P11182", "abundance fitness": "0.039 ± 0.064"},
      {"substance": "Lipoamide acyltransferase component of branched-chain alpha-keto acid dehydrogenase complex, mitochondrial E190F, P11182", "abundance fitness": "-0.448 ± 0.076"},
      {"substance": "Lipoamide acyltransferase component of branched-chain alpha-keto acid dehydrogenase complex, mitochondrial E190G, P11182", "abundance fitness": "-0.409 ± 0.038"},
      {"substance": "Lipoamide acyltransferase component of branched-chain alpha-keto acid dehydrogenase complex, mitochondrial E190H, P11182", "abundance fitness": "-0.086 ± 0.072"},
      {"substance": "Lipoamide acyltransferase component of branched-chain alpha-keto acid dehydrogenase complex, mitochondrial E190I, P11182", "abundance fitness": "-0.609 ± 0.08"},
      {"substance": "Lipoamide acyltransferase component of branched-chain alpha-keto acid dehydrogenase complex, mitochondrial E190K, P11182", "abundance fitness": "-0.178 ± 0.056"},
      {"substance": "Lipoamide acyltransferase component of branched-chain alpha-keto acid dehydrogenase complex, mitochondrial E190L, P11182", "abundance fitness": "-0.186 ± 0.042"},
      {"substance": "Lipoamide acyltransferase component of branched-chain alpha-keto acid dehydrogenase complex, mitochondrial E190M, P11182", "abundance fitness": "-0.147 ± 0.049"},
      {"substance": "Lipoamide acyltransferase component of branched-chain alpha-keto acid dehydrogenase complex, mitochondrial E190N, P11182", "abundance fitness": "-0.032 ± 0.047"},
      {"substance": "Lipoamide acyltransferase component of branched-chain alpha-keto acid dehydrogenase complex, mitochondrial E190P, P11182", "abundance fitness": "-0.963 ± 0.081"},
      {"substance": "Lipoamide acyltransferase component of branched-chain alpha-keto acid dehydrogenase complex, mitochondrial E190Q, P11182", "abundance fitness": "-0.069 ± 0.059"},
      {"substance": "Lipoamide acyltransferase component of branched-chain alpha-keto acid dehydrogenase complex, mitochondrial E190R, P11182", "abundance fitness": "-0.199 ± 0.04"},
      {"substance": "Lipoamide acyltransferase component of branched-chain alpha-keto acid dehydrogenase complex, mitochondrial E190S, P11182", "abundance fitness": "-0.079 ± 0.046"},
      {"substance": "Lipoamide acyltransferase component of branched-chain alpha-keto acid dehydrogenase complex, mitochondrial E190T, P11182", "abundance fitness": "-0.119 ± 0.047"},
      {"substance": "Lipoamide acyltransferase component of branched-chain alpha-keto acid dehydrogenase complex, mitochondrial E190W, P11182", "abundance fitness": "-0.192 ± 0.046"},
      {"substance": "Lipoamide acyltransferase component of branched-chain alpha-keto acid dehydrogenase complex, mitochondrial E190Y, P11182", "abundance fitness": "-0.349 ± 0.05"},
      {"substance": "Lipoamide acyltransferase component of branched-chain alpha-keto acid dehydrogenase complex, mitochondrial E203A, P11182", "abundance fitness": "-0.041 ± 0.042"},
      {"substance": "Lipoamide acyltransferase component of branched-chain alpha-keto acid dehydrogenase complex, mitochondrial E203C, P11182", "abundance fitness": "-0.053 ± 0.075"},
      {"substance": "Lipoamide acyltransferase component of branched-chain alpha-keto acid dehydrogenase complex, mitochondrial E203D, P11182", "abundance fitness": "-0.089 ± 0.059"},
      {"substance": "Lipoamide acyltransferase component of branched-chain alpha-keto acid dehydrogenase complex, mitochondrial E203F, P11182", "abundance fitness": "-0.409 ± 0.14"},
      {"substance": "Lipoamide acyltransferase component of branched-chain alpha-keto acid dehydrogenase complex, mitochondrial E203G, P11182", "abundance fitness": "-0.089 ± 0.04"},
      {"substance": "Lipoamide acyltransferase component of branched-chain alpha-keto acid dehydrogenase complex, mitochondrial E203H, P11182", "abundance fitness": "-0.124 ± 0.059"},
      {"substance": "Lipoamide acyltransferase component of branched-chain alpha-keto acid dehydrogenase complex, mitochondrial E203K, P11182", "abundance fitness": "-0.027 ± 0.055"},
      {"substance": "Lipoamide acyltransferase component of branched-chain alpha-keto acid dehydrogenase complex, mitochondrial E203L, P11182", "abundance fitness": "-0.176 ± 0.049"},
      {"substance": "Lipoamide acyltransferase component of branched-chain alpha-keto acid dehydrogenase complex, mitochondrial E203M, P11182", "abundance fitness": "-0.127 ± 0.06"},
      {"substance": "Lipoamide acyltransferase component of branched-chain alpha-keto acid dehydrogenase complex, mitochondrial E203P, P11182", "abundance fitness": "-0.173 ± 0.059"},
      {"substance": "Lipoamide acyltransferase component of branched-chain alpha-keto acid dehydrogenase complex, mitochondrial E203Q, P11182", "abundance fitness": "-0.104 ± 0.058"},
      {"substance": "Lipoamide acyltransferase component of branched-chain alpha-keto acid dehydrogenase complex, mitochondrial E203R, P11182", "abundance fitness": "0.024 ± 0.037"},
      {"substance": "Lipoamide acyltransferase component of branched-chain alpha-keto acid dehydrogenase complex, mitochondrial E203S, P11182", "abundance fitness": "-0.007 ± 0.067"},
      {"substance": "Lipoamide acyltransferase component of branched-chain alpha-keto acid dehydrogenase complex, mitochondrial E203T, P11182", "abundance fitness": "-0.109 ± 0.087"}
    ]}
  ]
}
